Measured values published in patent publication US20140087995A1 (published 2014).
Numbered stars: 1 amine (or outer) side, 2 acyl side, 3 side chain; on linkers, the order of the positions; unused ones are H or OH. Bridge positions count the residues as written; N and C are the ends. Side chains are listed from the residue outwards. Ends that are not written are not given here. * marks the point of attachment. C20 diacid = O=C(O)CCCCCCCCCCCCCCCCCCC(=O)*; γGlu = O=C(O)[C@H](CCC(=O)[*:2])N[*:1]

T1: rat calcitonin receptor (rat, UniProt P32214 25-516)
T1 construct: whole, on cells; Membranes of transiently transfected BHK tk'ts 13 cells (Assay VIII); also called rCTR
T1 sequence (looked up): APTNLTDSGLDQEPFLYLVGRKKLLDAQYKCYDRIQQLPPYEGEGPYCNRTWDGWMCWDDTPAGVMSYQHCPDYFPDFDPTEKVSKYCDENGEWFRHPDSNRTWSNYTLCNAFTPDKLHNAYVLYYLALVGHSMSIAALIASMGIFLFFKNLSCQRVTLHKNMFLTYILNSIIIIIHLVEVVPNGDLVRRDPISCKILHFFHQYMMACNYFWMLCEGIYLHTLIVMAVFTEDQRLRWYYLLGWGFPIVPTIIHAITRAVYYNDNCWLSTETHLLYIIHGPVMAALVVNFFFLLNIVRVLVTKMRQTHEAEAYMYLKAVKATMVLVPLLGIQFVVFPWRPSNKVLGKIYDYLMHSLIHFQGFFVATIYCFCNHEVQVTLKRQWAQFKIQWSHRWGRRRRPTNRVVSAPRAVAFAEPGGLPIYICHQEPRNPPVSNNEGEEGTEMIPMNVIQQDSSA

T2: human calcitonin receptor (human, UniProt P30988 25-474)
T2 construct: whole, on cells; Membranes of a stably transfected BHK cell line (Assay VII); also called hCTR; hCT
T2 sequence (looked up): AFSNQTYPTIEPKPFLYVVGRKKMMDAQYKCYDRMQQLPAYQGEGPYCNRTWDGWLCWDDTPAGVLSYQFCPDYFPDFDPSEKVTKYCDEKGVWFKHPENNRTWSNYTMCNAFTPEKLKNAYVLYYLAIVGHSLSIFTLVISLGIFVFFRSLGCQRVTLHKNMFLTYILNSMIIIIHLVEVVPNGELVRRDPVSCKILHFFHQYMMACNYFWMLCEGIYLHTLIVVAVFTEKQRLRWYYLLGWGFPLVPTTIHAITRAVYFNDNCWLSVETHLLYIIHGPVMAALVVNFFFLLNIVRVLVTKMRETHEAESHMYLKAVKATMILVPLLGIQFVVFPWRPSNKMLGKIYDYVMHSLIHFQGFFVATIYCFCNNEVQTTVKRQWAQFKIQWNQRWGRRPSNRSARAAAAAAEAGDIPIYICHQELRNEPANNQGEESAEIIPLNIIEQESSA

T3: rat amylin receptor (rat calcitonin receptor + rat RAMP 3) (rat, UniProt P32214 25-516; Q9JJ73 23-147)
T3 construct: whole, on cells; Membranes of transiently transfected BHK tk'ts 13 cells (Assay VI); also called rAmylin-R; rat amylin 3(a) receptor
T3 sequence (looked up) 1: T1 sequence (looked up)
T3 sequence (looked up) 2: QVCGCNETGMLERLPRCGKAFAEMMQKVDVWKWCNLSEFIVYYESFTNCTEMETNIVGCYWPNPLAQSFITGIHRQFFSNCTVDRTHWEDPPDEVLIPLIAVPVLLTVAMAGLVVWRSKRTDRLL

B1: N^ε1-[(4S)-4-carboxy-4-(19-carboxynonadecanoylamino)butanoyl]-[Ala14,Arg17,Pro21,Pro27,Pro34]-h-amylin (peptide)
peptide: K([γGlu-C20 diacid])CNTATCATQRLAAFLRHSSPNFGAIPSSTNVGPNTY-NH2
modifications: disulfide 2-7; N-terminus assumed
SMILES: CC[C@H](C)[C@H](NC(=O)[C@H](C)NC(=O)CNC(=O)[C@H](Cc1ccccc1)NC(=O)[C@H](CC(N)=O)NC(=O)[C@@H]1CCCN1C(=O)[C@H](CO)NC(=O)[C@H](CO)NC(=O)[C@H](Cc1c[nH]cn1)NC(=O)[C@H](CCCNC(=N)N)NC(=O)[C@H](CC(C)C)NC(=O)[C@H](Cc1ccccc1)NC(=O)[C@H](C)NC(=O)[C@H](C)NC(=O)[C@H](CC(C)C)NC(=O)[C@H](CCCNC(=N)N)NC(=O)[C@H](CCC(N)=O)NC(=O)[C@@H](NC(=O)[C@H](C)NC(=O)[C@@H]1CSSC[C@H](NC(=O)[C@@H](N)CCCCNC(=O)CC[C@H](NC(=O)CCCCCCCCCCCCCCCCCCC(=O)O)C(=O)O)C(=O)N[C@@H](CC(N)=O)C(=O)N[C@@H]([C@@H](C)O)C(=O)N[C@@H](C)C(=O)N[C@@H]([C@@H](C)O)C(=O)N1)[C@@H](C)O)C(=O)N1CCC[C@H]1C(=O)N[C@@H](CO)C(=O)N[C@@H](CO)C(=O)N[C@H](C(=O)N[C@@H](CC(N)=O)C(=O)N[C@H](C(=O)NCC(=O)N1CCC[C@H]1C(=O)N[C@@H](CC(N)=O)C(=O)N[C@H](C(=O)N[C@@H](Cc1ccc(O)cc1)C(N)=O)[C@@H](C)O)C(C)C)[C@@H](C)O
notes: also called compound 94
B2: N^ε1-[(4S)-4-carboxy-4-(19-carboxynonadecanoylamino)butanoyl]-[Glu14,Arg17,Pro21,Pro27,Pro34,Arg35]-h-amylin (peptide)
peptide: K([γGlu-C20 diacid])CNTATCATQRLAEFLRHSSPNFGAIPSSTNVGPRTY-NH2
modifications: disulfide 2-7; N-terminus assumed
SMILES: CC[C@H](C)[C@H](NC(=O)[C@H](C)NC(=O)CNC(=O)[C@H](Cc1ccccc1)NC(=O)[C@H](CC(N)=O)NC(=O)[C@@H]1CCCN1C(=O)[C@H](CO)NC(=O)[C@H](CO)NC(=O)[C@H](Cc1c[nH]cn1)NC(=O)[C@H](CCCNC(=N)N)NC(=O)[C@H](CC(C)C)NC(=O)[C@H](Cc1ccccc1)NC(=O)[C@H](CCC(=O)O)NC(=O)[C@H](C)NC(=O)[C@H](CC(C)C)NC(=O)[C@H](CCCNC(=N)N)NC(=O)[C@H](CCC(N)=O)NC(=O)[C@@H](NC(=O)[C@H](C)NC(=O)[C@@H]1CSSC[C@H](NC(=O)[C@@H](N)CCCCNC(=O)CC[C@H](NC(=O)CCCCCCCCCCCCCCCCCCC(=O)O)C(=O)O)C(=O)N[C@@H](CC(N)=O)C(=O)N[C@@H]([C@@H](C)O)C(=O)N[C@@H](C)C(=O)N[C@@H]([C@@H](C)O)C(=O)N1)[C@@H](C)O)C(=O)N1CCC[C@H]1C(=O)N[C@@H](CO)C(=O)N[C@@H](CO)C(=O)N[C@H](C(=O)N[C@@H](CC(N)=O)C(=O)N[C@H](C(=O)NCC(=O)N1CCC[C@H]1C(=O)N[C@@H](CCCNC(=N)N)C(=O)N[C@H](C(=O)N[C@@H](Cc1ccc(O)cc1)C(N)=O)[C@@H](C)O)C(C)C)[C@@H](C)O
B3: N^ε1-[(4S)-4-carboxy-4-(19-carboxynonadecanoylamino)butanoyl]-[Glu14,Arg17,Pro21,Pro27,His34,Glu35]-h-amylin (peptide)
peptide: K([γGlu-C20 diacid])CNTATCATQRLAEFLRHSSPNFGAIPSSTNVGHETY-NH2
modifications: disulfide 2-7; N-terminus assumed
SMILES: CC[C@H](C)[C@H](NC(=O)[C@H](C)NC(=O)CNC(=O)[C@H](Cc1ccccc1)NC(=O)[C@H](CC(N)=O)NC(=O)[C@@H]1CCCN1C(=O)[C@H](CO)NC(=O)[C@H](CO)NC(=O)[C@H](Cc1c[nH]cn1)NC(=O)[C@H](CCCNC(=N)N)NC(=O)[C@H](CC(C)C)NC(=O)[C@H](Cc1ccccc1)NC(=O)[C@H](CCC(=O)O)NC(=O)[C@H](C)NC(=O)[C@H](CC(C)C)NC(=O)[C@H](CCCNC(=N)N)NC(=O)[C@H](CCC(N)=O)NC(=O)[C@@H](NC(=O)[C@H](C)NC(=O)[C@@H]1CSSC[C@H](NC(=O)[C@@H](N)CCCCNC(=O)CC[C@H](NC(=O)CCCCCCCCCCCCCCCCCCC(=O)O)C(=O)O)C(=O)N[C@@H](CC(N)=O)C(=O)N[C@@H]([C@@H](C)O)C(=O)N[C@@H](C)C(=O)N[C@@H]([C@@H](C)O)C(=O)N1)[C@@H](C)O)C(=O)N1CCC[C@H]1C(=O)N[C@@H](CO)C(=O)N[C@@H](CO)C(=O)N[C@H](C(=O)N[C@@H](CC(N)=O)C(=O)N[C@H](C(=O)NCC(=O)N[C@@H](Cc1c[nH]cn1)C(=O)N[C@@H](CCC(=O)O)C(=O)N[C@H](C(=O)N[C@@H](Cc1ccc(O)cc1)C(N)=O)[C@@H](C)O)C(C)C)[C@@H](C)O
notes: also called compound 107
B4: N^ε1-[(4S)-4-carboxy-4-(19-carboxynonadecanoylamino)butanoyl]-[Glu14,Arg17,Pro21,Pro27,Arg34,Glu35]-h-amylin (peptide)
peptide: K([γGlu-C20 diacid])CNTATCATQRLAEFLRHSSPNFGAIPSSTNVGRETY-NH2
modifications: disulfide 2-7; N-terminus assumed
SMILES: CC[C@H](C)[C@H](NC(=O)[C@H](C)NC(=O)CNC(=O)[C@H](Cc1ccccc1)NC(=O)[C@H](CC(N)=O)NC(=O)[C@@H]1CCCN1C(=O)[C@H](CO)NC(=O)[C@H](CO)NC(=O)[C@H](Cc1c[nH]cn1)NC(=O)[C@H](CCCNC(=N)N)NC(=O)[C@H](CC(C)C)NC(=O)[C@H](Cc1ccccc1)NC(=O)[C@H](CCC(=O)O)NC(=O)[C@H](C)NC(=O)[C@H](CC(C)C)NC(=O)[C@H](CCCNC(=N)N)NC(=O)[C@H](CCC(N)=O)NC(=O)[C@@H](NC(=O)[C@H](C)NC(=O)[C@@H]1CSSC[C@H](NC(=O)[C@@H](N)CCCCNC(=O)CC[C@H](NC(=O)CCCCCCCCCCCCCCCCCCC(=O)O)C(=O)O)C(=O)N[C@@H](CC(N)=O)C(=O)N[C@@H]([C@@H](C)O)C(=O)N[C@@H](C)C(=O)N[C@@H]([C@@H](C)O)C(=O)N1)[C@@H](C)O)C(=O)N1CCC[C@H]1C(=O)N[C@@H](CO)C(=O)N[C@@H](CO)C(=O)N[C@H](C(=O)N[C@@H](CC(N)=O)C(=O)N[C@H](C(=O)NCC(=O)N[C@@H](CCCNC(=N)N)C(=O)N[C@@H](CCC(=O)O)C(=O)N[C@H](C(=O)N[C@@H](Cc1ccc(O)cc1)C(N)=O)[C@@H](C)O)C(C)C)[C@@H](C)O
B5: N^ε1-[(4S)-4-carboxy-4-(19-carboxynonadecanoylamino)butanoyl]-[Arg14,Arg17,Pro21,Pro27]-h-amylin (peptide)
peptide: K([γGlu-C20 diacid])CNTATCATQRLARFLRHSSPNFGAIPSSTNVGSNTY-NH2
modifications: disulfide 2-7; N-terminus assumed
SMILES: CC[C@H](C)[C@H](NC(=O)[C@H](C)NC(=O)CNC(=O)[C@H](Cc1ccccc1)NC(=O)[C@H](CC(N)=O)NC(=O)[C@@H]1CCCN1C(=O)[C@H](CO)NC(=O)[C@H](CO)NC(=O)[C@H](Cc1c[nH]cn1)NC(=O)[C@H](CCCNC(=N)N)NC(=O)[C@H](CC(C)C)NC(=O)[C@H](Cc1ccccc1)NC(=O)[C@H](CCCNC(=N)N)NC(=O)[C@H](C)NC(=O)[C@H](CC(C)C)NC(=O)[C@H](CCCNC(=N)N)NC(=O)[C@H](CCC(N)=O)NC(=O)[C@@H](NC(=O)[C@H](C)NC(=O)[C@@H]1CSSC[C@H](NC(=O)[C@@H](N)CCCCNC(=O)CC[C@H](NC(=O)CCCCCCCCCCCCCCCCCCC(=O)O)C(=O)O)C(=O)N[C@@H](CC(N)=O)C(=O)N[C@@H]([C@@H](C)O)C(=O)N[C@@H](C)C(=O)N[C@@H]([C@@H](C)O)C(=O)N1)[C@@H](C)O)C(=O)N1CCC[C@H]1C(=O)N[C@@H](CO)C(=O)N[C@@H](CO)C(=O)N[C@H](C(=O)N[C@@H](CC(N)=O)C(=O)N[C@H](C(=O)NCC(=O)N[C@@H](CO)C(=O)N[C@@H](CC(N)=O)C(=O)N[C@H](C(=O)N[C@@H](Cc1ccc(O)cc1)C(N)=O)[C@@H](C)O)C(C)C)[C@@H](C)O
notes: also called compound 83

What follows are binders tested against T1, rat calcitonin receptor (assay: ratio IC50 rat calcitonin receptor / IC50 rat amylin receptor (reference)).

Ratio rCT/rAmylin binding	Binder
280	B1
45.5	B2
34.6	B3
81.1	B4
49.7	B5

These binders were tested against T2, human calcitonin receptor (assay: ratio IC50 human calcitonin receptor / IC50 human amylin receptor (reference)).
Method in brief: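 IC₅₀ values were derived by one-site competition analysis of SPA counts. Cell membranes (35 ng/μL) with SPA beads were incubated with test compounds for 120 min at 25° C in Hepes buffer, pH 7.4, containing CaCl2, MgCl₂, OA and Tween20.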

Ratio hCT/hAmylin binding	Binder
46.3	B1
38.6	B2
11.1	B3
28.5	B4
146	B5

These binders were tested against T1, rat calcitonin receptor (assay: SPA competition with 125I-calcitonin, membranes of BHK cells with rat calcitonin receptor (Assay VIII)).

IC50	Binder
111 nM	B1
15.4 nM	B2
33.1 nM	B3
86.1 nM	B4
140 nM	B5

The binders below were run against T3, rat amylin receptor (rat calcitonin …) (assay: SPA competition with 125I-rat amylin, membranes of BHK cells with rat calcitonin receptor + rat RAMP3 (Assay VI)).

IC50	Binder
0.397 nM	B1
0.339 nM	B2
0.958 nM	B3
1.06 nM	B4
2.83 nM	B5
